Measurements: publication PMC9381089 (Molecular Cancer Therapeutics, 2022)

B1: ABBV-011 (SC17 conjugated to the calicheamicin linker drug LD19.10) (antibody, V domains shown)
VH: EVQLVQSGAEVKKPGESLKISCKGSGYSFTSSWINWVRQMPGKGLEWMGRIYPGEGDTNYSGNFEGQVTISADKSISTAYLQWSSLKASDTAMYYCTRGLVMDYWGQGTLVTVSS
VL: EIVLTQSPATLSLSPGERATLSCRASQSVDYNGISYMHWYQQKPGQAPRLLIYAASNVQSGIPARFSGSGSGTDFTLTISSLEPEDFAVYYCQQSIEDPPTFGGGTKVEIK
B2: SC17, humanized anti-SEZ6 monoclonal antibody (antibody, V domains shown)
VH: B1 VH
VL: B1 VL

Key:
[1] = target: cynomolgus monkey SEZ6, ectopically expressed on 293T cells (Macaca fascicularis, UniProt A0A2K5WPJ4); assay: flow cytometry on cells
[2] = target: murine SEZ6, ectopically expressed on 293T cells (Mus musculus (Mouse)., UniProt Q7TSK2); assay: flow cytometry on cells
Chain of murine SEZ6, ectopically expressed on 293T cells (Q7TSK2 20-991): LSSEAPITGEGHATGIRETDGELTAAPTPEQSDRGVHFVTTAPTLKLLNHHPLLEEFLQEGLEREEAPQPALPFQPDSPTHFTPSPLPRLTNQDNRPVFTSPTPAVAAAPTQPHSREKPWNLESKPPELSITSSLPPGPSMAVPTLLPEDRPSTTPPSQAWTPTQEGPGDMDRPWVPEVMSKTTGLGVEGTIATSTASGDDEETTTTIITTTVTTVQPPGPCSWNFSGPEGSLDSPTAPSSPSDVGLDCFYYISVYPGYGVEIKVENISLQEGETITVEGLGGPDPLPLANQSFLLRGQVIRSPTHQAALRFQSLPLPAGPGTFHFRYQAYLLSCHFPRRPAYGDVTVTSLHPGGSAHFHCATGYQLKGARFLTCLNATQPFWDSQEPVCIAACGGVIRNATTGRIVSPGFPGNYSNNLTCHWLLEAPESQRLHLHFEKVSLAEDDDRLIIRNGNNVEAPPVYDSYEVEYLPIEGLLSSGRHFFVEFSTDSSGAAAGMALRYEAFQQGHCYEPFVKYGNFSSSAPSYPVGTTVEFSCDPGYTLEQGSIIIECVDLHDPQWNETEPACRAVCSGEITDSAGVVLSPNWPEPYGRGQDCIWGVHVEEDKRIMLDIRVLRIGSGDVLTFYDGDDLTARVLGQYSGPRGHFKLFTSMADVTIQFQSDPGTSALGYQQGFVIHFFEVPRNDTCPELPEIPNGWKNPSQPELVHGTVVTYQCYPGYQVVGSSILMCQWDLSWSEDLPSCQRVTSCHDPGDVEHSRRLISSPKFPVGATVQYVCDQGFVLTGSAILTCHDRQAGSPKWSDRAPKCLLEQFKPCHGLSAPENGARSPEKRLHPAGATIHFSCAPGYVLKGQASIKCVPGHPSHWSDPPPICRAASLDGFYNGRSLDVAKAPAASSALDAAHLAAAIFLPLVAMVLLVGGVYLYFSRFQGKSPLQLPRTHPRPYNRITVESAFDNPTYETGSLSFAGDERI

Row | Binder | binding result [1] | binding result [2]
1 | B1 | binds | binds
2 | B2 | binds | 
